Reference: US20080234198A1 (Eli Lilly, published 2008)
Where a chain is given by its changes, count along the chain named.

T1: human VPAC2 receptor (human, UniProt P41587 24-438)
T1 construct: whole, on cells; CHO-S cell line stably expressing human VPAC2 (cAMP assays)
T1 sequence (looked up): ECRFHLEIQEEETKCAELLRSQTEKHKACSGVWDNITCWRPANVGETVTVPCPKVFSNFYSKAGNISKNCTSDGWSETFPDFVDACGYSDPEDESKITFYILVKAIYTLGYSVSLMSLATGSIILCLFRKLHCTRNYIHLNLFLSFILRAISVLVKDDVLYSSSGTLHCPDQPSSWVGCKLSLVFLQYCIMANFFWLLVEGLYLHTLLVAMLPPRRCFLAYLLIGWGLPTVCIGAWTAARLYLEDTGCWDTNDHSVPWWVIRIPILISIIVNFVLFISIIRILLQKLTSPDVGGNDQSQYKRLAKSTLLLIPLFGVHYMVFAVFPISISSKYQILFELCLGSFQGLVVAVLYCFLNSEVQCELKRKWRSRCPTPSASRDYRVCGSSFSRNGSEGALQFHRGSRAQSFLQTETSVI

T2: rat VPAC1 receptor (rat, UniProt P30083 31-459)
T2 sequence (looked up): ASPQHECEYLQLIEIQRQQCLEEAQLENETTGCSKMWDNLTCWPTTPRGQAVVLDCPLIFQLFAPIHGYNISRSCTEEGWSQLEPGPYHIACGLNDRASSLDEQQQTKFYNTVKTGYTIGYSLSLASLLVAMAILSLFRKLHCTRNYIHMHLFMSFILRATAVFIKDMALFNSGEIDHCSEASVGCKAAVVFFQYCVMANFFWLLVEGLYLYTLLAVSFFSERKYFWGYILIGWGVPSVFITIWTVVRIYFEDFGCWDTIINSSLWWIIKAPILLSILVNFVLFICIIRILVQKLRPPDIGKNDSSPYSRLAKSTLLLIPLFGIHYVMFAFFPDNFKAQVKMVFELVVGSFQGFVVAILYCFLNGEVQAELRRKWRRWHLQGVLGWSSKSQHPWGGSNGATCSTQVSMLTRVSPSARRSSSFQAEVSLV

T3: rat VPAC2 receptor (rat, UniProt P35000 23-437)
T3 sequence (looked up): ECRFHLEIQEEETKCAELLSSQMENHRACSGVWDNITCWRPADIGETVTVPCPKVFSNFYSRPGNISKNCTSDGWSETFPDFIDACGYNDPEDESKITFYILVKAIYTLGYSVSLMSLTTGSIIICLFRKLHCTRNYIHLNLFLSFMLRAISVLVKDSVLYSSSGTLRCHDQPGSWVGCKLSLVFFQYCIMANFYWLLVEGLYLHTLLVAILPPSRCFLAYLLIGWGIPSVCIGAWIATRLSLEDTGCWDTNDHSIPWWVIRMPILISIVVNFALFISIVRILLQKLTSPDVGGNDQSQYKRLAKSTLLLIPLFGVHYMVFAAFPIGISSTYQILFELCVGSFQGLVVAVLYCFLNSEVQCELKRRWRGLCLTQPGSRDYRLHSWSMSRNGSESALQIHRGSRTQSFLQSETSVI

B1: P495 (peptide)
peptide: HSDAVFTEQYTXLRXQVAAXXYLQXIXXGGPSSGAPPPC
modifications: C6-HSDAVFTEQY(OMe)TOrnLRAibQVAAAibOrnYLQK(CO(CH2)2SPEG20K)IOrnOrnGGPSSGAPPPC(PEG20K)-NH2
B2: P497 (peptide)
peptide: B1 peptide with X25S, I26X
modifications: C6-HSDAVFTEQY(OMe)TOrnLRAibQVAAAibOrnYLQSK(CO(CH2)2SPEG20K)OrnOrnGGPSSGAPPPC(PEG20K)-NH2

These binders were tested against T1, human VPAC2 receptor (assay: filter binding, VPAC2 cell membranes, displacement of 125I-VIP).
Protocol: Binding assays: Membrane prepared from a stable VPAC2 cell line (see Example 3) or from cells transiently transfected with human VPAC1 or PAC1 are used.
The assay plate is filled with 25 μL assay buffer, 25 μL membranes (2.5 μg) suspended in assay buffer, 25 μL agonist in assay buffer, and 25 μL tracer (about 40000 cpm) in assay buffer. The filled plate is incubated for 1 hour with shaking.
The transfer from assay plate to filter plate is conducted. The blocking buffer is aspirated by vacuum filtration and washed two times with flush buffer. 90 μL is transferred from the assay plate to the filter plate. The 90 μL transferred from assay plate is aspirated and washed three times with 200 μL flush buffer. The plastic support is removed. It is dried for 1 hour at 60° C. 30 μL Microscint is added. The count is performed.

Binder | IC50 [nM]
B1 | 142
B2 | 146
HSDAVFTEQYTXLRXQVAAXXYLQSIXXGGPSSGAPPPS (C6-HSDAVFTEQY(OMe)TOrnLRAibQVAAAibK(CO(CH2)2SPEG20K)YLQSIOrnOrnGGPSSGAPPPS-NH2) [P473] | 256
HSDAVFTEQYTXLRXQVAAXXYLQXIXXGGPSSGAPPPC (C6-HSDAVFTEQY(OMe)TOrnLRAibQVAAAibOrnYLQAibIOrnOrnGGPSSGAPPPC(PEG40K)-NH2) [P509] | 11.2
HSDAVFTEQYTXLRXQLAXXXYLQXCXXGGPSSGAPPPS (C6-HSDAVFTEQY(OMe)TOrnLRAibQLAAbuAibOrnYLQAibC(PEG40K)OrnOrnGGPSSGAPPPS-NH2) [P541] | 59.8
HSDAVFTEQYTXLRXQVAAXXYLCSIXXGGPSSGAPPPC (C6-HSDAVFTEQY(OMe)TOrnLRAibQVAAAibOrnYLC(PEG20K)SIOrnOrnGGPSSGAPPPC(PEG20K)-NH2) [P501] | 111
HSDAVFTEQYTXLRXQVAAXXYLQSCXXGGPSSGAPPPC (C6-HSDAVFTEQY(OMe)TOrnLRAibQVAAAibOrnYLQSC(PEG20K)OrnOrnGGPSSGAPPPC(PEG20K)-NH2) [P503] | 41.5
HSDAVFTEQYTXLRXQVCAXXYLQSIXXGGPSSGAPPPS (C6-HSDAVFTEQY(OMe)TOrnLRAibQVC(PEG40K)AAibOrnYLQSIOrnOrnGGPSSGAPPPS-NH2) [P478] | 30
HSDAVFTEQYTXLRXQVAXXXYLQXIXXGGPSSGAPPPC (C6-HSDAVFTEQY(OMe)TOrnLRAibQVAAbuAibOrnYLQAibIOrnOrnGGPSSGAPPPC(PEG40K)-NH2) [P511] | 7.2
HSDAVFTEQYTXLRXQVAAXXYLQSXXXGGPSSGAPPPS (C6-HSDAVFTEQY(OMe)TOrnLRAibQVAAAibOrnYLQSK(WPEG40K)OrnOrnGGPSSGAPPPS-NH2) [P535] | 145
HSDAVFTEQYTXLRXQLAXXXYLQSCXXGGPSSGAPPPS (C6-HSDAVFTEQY(OMe)TOrnLRAibQLAAbuAibOrnYLQSC(PEG40K)OrnOrnGGPSSGAPPPS-NH2) [P543] | 56.3

Each binder was assayed against T2, rat VPAC1 receptor (assay: cell-based or functional assay).

Binder | Rat VPAC1 Receptor: DiscoveRx: (EC50; nM) [nM]
B2 | > 1000
HSDAVFTEQYTXLRXQVAAXXYLQSIXXGGPSSGAPPPS (C6-HSDAVFTEQY(OMe)TOrnLRAibQVAAAibK(CO(CH2)2SPEG20K)YLQSIOrnOrnGGPSSGAPPPS-NH2) [P473] | > 1000
HSDAVFTEQYTXLRXQVAAXXYLQXIXXGGPSSGAPPPC (C6-HSDAVFTEQY(OMe)TOrnLRAibQVAAAibOrnYLQAibIOrnOrnGGPSSGAPPPC(PEG40K)-NH2) [P509] | 328
HSDAVFTEQYTXLRXQLAXXXYLQXCXXGGPSSGAPPPS (C6-HSDAVFTEQY(OMe)TOrnLRAibQLAAbuAibOrnYLQAibC(PEG40K)OrnOrnGGPSSGAPPPS-NH2) [P541] | 665
HSDAVFTEQYTXLRXQVAAXXYLCSIXXGGPSSGAPPPC (C6-HSDAVFTEQY(OMe)TOrnLRAibQVAAAibOrnYLC(PEG20K)SIOrnOrnGGPSSGAPPPC(PEG20K)-NH2) [P501] | > 1000
HSDAVFTEQYTXLRXQVAAXXYLQSCXXGGPSSGAPPPC (C6-HSDAVFTEQY(OMe)TOrnLRAibQVAAAibOrnYLQSC(PEG20K)OrnOrnGGPSSGAPPPC(PEG20K)-NH2) [P503] | > 4000
HSDAVFTEQYTXLRXQVCAXXYLQSIXXGGPSSGAPPPS (C6-HSDAVFTEQY(OMe)TOrnLRAibQVC(PEG40K)AAibOrnYLQSIOrnOrnGGPSSGAPPPS-NH2) [P478] | 2050
HSDAVFTEQYTXLRXQVAXXXYLQXIXXGGPSSGAPPPC (C6-HSDAVFTEQY(OMe)TOrnLRAibQVAAbuAibOrnYLQAibIOrnOrnGGPSSGAPPPC(PEG40K)-NH2) [P511] | 61.9
HSDAVFTEQYTXLRXQVAAXXYLQSXXXGGPSSGAPPPS (C6-HSDAVFTEQY(OMe)TOrnLRAibQVAAAibOrnYLQSK(WPEG40K)OrnOrnGGPSSGAPPPS-NH2) [P535] | > 1000
HSDAVFTEQYTXLRXQLAXXXYLQSCXXGGPSSGAPPPS (C6-HSDAVFTEQY(OMe)TOrnLRAibQLAAbuAibOrnYLQSC(PEG40K)OrnOrnGGPSSGAPPPS-NH2) [P543] | 355

These binders were tested against T3, rat VPAC2 receptor (assay: cell-based or functional assay).

Binder | Rat VPAC2 Receptor: DiscoveRx: (EC50; nM) [nM]
B2 | 345
HSDAVFTEQYTXLRXQVAAXXYLQSIXXGGPSSGAPPPS (C6-HSDAVFTEQY(OMe)TOrnLRAibQVAAAibK(CO(CH2)2SPEG20K)YLQSIOrnOrnGGPSSGAPPPS-NH2) [P473] | 25.5
HSDAVFTEQYTXLRXQVAAXXYLQXIXXGGPSSGAPPPC (C6-HSDAVFTEQY(OMe)TOrnLRAibQVAAAibOrnYLQAibIOrnOrnGGPSSGAPPPC(PEG40K)-NH2) [P509] | 28.2
HSDAVFTEQYTXLRXQLAXXXYLQXCXXGGPSSGAPPPS (C6-HSDAVFTEQY(OMe)TOrnLRAibQLAAbuAibOrnYLQAibC(PEG40K)OrnOrnGGPSSGAPPPS-NH2) [P541] | 102
HSDAVFTEQYTXLRXQVAAXXYLCSIXXGGPSSGAPPPC (C6-HSDAVFTEQY(OMe)TOrnLRAibQVAAAibOrnYLC(PEG20K)SIOrnOrnGGPSSGAPPPC(PEG20K)-NH2) [P501] | 272
HSDAVFTEQYTXLRXQVAAXXYLQSCXXGGPSSGAPPPC (C6-HSDAVFTEQY(OMe)TOrnLRAibQVAAAibOrnYLQSC(PEG20K)OrnOrnGGPSSGAPPPC(PEG20K)-NH2) [P503] | 520
HSDAVFTEQYTXLRXQVCAXXYLQSIXXGGPSSGAPPPS (C6-HSDAVFTEQY(OMe)TOrnLRAibQVC(PEG40K)AAibOrnYLQSIOrnOrnGGPSSGAPPPS-NH2) [P478] | 120
HSDAVFTEQYTXLRXQVAXXXYLQXIXXGGPSSGAPPPC (C6-HSDAVFTEQY(OMe)TOrnLRAibQVAAbuAibOrnYLQAibIOrnOrnGGPSSGAPPPC(PEG40K)-NH2) [P511] | 13.9
HSDAVFTEQYTXLRXQVAAXXYLQSXXXGGPSSGAPPPS (C6-HSDAVFTEQY(OMe)TOrnLRAibQVAAAibOrnYLQSK(WPEG40K)OrnOrnGGPSSGAPPPS-NH2) [P535] | 318
HSDAVFTEQYTXLRXQLAXXXYLQSCXXGGPSSGAPPPS (C6-HSDAVFTEQY(OMe)TOrnLRAibQLAAbuAibOrnYLQSC(PEG40K)OrnOrnGGPSSGAPPPS-NH2) [P543] | 101

What follows are binders tested against T1, human VPAC2 receptor (assay: cell-based or functional assay).

Binder | Human VPAC2 Receptor: Alphascreen (EC50; nM) [nM] | Human VPAC2 Receptor: DiscoveRx (EC50; nM) [nM]
HSDAVFTEQYTXLRXQXAAXXYLQSIXXGGPSSGAPPPS (C6-HSDAVFTEQY(OMe)TOrnLRAibQK(WPEG40K)AAAibOrnYLQSIOrnOrnGGPSSGAPPPS-NH2) [P533] | 2380 | –
B1 | 117 | –
B2 | 176 | –
HSDAVFTEQYTXLRXQVAAXXYLQSIXXGGPSSGAPPPS (C6-HSDAVFTEQY(OMe)TOrnLRAibQVAAAibK(CO(CH2)2SPEG20K)YLQSIOrnOrnGGPSSGAPPPS-NH2) [P473] | 26.5 | –
HSDAVFTEQYTXLRXQVAAXXYLQXIXXGGPSSGAPPPC (C6-HSDAVFTEQY(OMe)TOrnLRAibQVAAAibOrnYLQAibIOrnOrnGGPSSGAPPPC(PEG40K)-NH2) [P509] | 13 | –
HSDAVFTEQYTXLRXQLAXXXYLQXCXXGGPSSGAPPPS (C6-HSDAVFTEQY(OMe)TOrnLRAibQLAAbuAibOrnYLQAibC(PEG40K)OrnOrnGGPSSGAPPPS-NH2) [P541] | 45.8 | –
HSDAVFTEQYTXLRXQVAAXXYLCSIXXGGPSSGAPPPC (C6-HSDAVFTEQY(OMe)TOrnLRAibQVAAAibOrnYLC(PEG20K)SIOrnOrnGGPSSGAPPPC(PEG20K)-NH2) [P501] | 131 | –
HSDAVFTEQYTXLRXQVAAXXYLQSCXXGGPSSGAPPPC (C6-HSDAVFTEQY(OMe)TOrnLRAibQVAAAibOrnYLQSC(PEG20K)OrnOrnGGPSSGAPPPC(PEG20K)-NH2) [P503] | 147 | –
HSDAVFTEQYTXLRXQVCAXXYLQSIXXGGPSSGAPPPS (C6-HSDAVFTEQY(OMe)TOrnLRAibQVC(PEG40K)AAibOrnYLQSIOrnOrnGGPSSGAPPPS-NH2) [P478] | 49.9 | –
HSDAVFTEQYTXLRXQVAXXXYLQXIXXGGPSSGAPPPC (C6-HSDAVFTEQY(OMe)TOrnLRAibQVAAbuAibOrnYLQAibIOrnOrnGGPSSGAPPPC(PEG40K)-NH2) [P511] | 7.6 | –
HSDAVFTEQYTXLRXQVAAXXYLQSXXXGGPSSGAPPPS (C6-HSDAVFTEQY(OMe)TOrnLRAibQVAAAibOrnYLQSK(WPEG40K)OrnOrnGGPSSGAPPPS-NH2) [P535] | 98.4 | –
HSDAVFTEQYTXLRXQLAXXXYLQSCXXGGPSSGAPPPS (C6-HSDAVFTEQY(OMe)TOrnLRAibQLAAbuAibOrnYLQSC(PEG40K)OrnOrnGGPSSGAPPPS-NH2) [P543] | 84.2 | 8.9
